B1: Epithelial sodium channel subunit beta (Homo sapiens), P51168 (parent)
chain: MHVKKYLLKGLHRLQKGPGYTYKELLVWYCDNTNTHGPKRIICEGPKKKAMWFLLTLLFAALVCWQWGIFIRTYLSWEVSVSLSVGFKTMDFPAVTICNASPFKYSKIKHLLKDLDELMEAVLERILAPELSHANATRNLNFSIWNHTPLVLIDERNPHHPMVLDLFGDNHNGLTSSSASEKICNAHGCKMAMRLCSLNRTQCTFRNFTSATQALTEWYILQATNIFAQVPQQELVEMSYPGEQMILACLFGAEPCNYRNFTSIFYPHYGNCYIFNWGMTEKALPSANPGTEFGLKLILDIGQEDYVPFLASTAGVRLMLHEQRSYPFIRDEGIYAMSGTETSIGVLVDKLQRMGEPYSPCTVNGSEVPVQNFYSDYNTTYSIQACLRSCFQDHMIRNCNCGHYLYPLPRGEKYCNNRDFPDWAHCYSDLQMSVAQRETCIGMCKESCNDTQYKMTISMADWPSEASEDWIFHVLSQERDQSTNITLSRKGIVKLNIYFQEFNYRTIEESAANNIVWLLSNLGGQFGFWMGGSVLCLIEFGEIIIDFVWITIIKLVALAKSLRQRRAQASYAGPPPTVAELVEAHTNFGFQPDTAPRSPNTGPYPSEQALPIPGTPPPNYDSLRLQPLDVIESDSEGDAI
B2: Radial spoke head protein 4 homolog A (Homo sapiens), Q5TD94 (parent)
chain: MEDSTSPKQEKENQEELGETRRPWEGKTAASPQYSEPESSEPLEAKQGPETGRQSRSSRPWSPQSRAKTPLGGPAGPETSSPAPVSPREPSSSPSPLAPARQDLAAPPQSDRTTSVIPEAGTPYPDPLEQSSDKRESTPHHTSQSEGNTFQQSQQPKPHLCGRRDVSYNNAKQKELRFDVFQEEDSNSDYDLQQPAPGGSEVAPSMLEITIQNAKAYLLKTSSNSGFNLYDHLSNMLTKILNERPENAVDIFENISQDVKMAHFSKKFDALQNENELLPTYEIAEKQKALFLQGHLEGVDQELEDEIAENALPNVMESAFYFEQAGVGLGTDETYRIFLALKQLTDTHPIQRCRFWGKILGLEMNYIVAEVEFREGEDEEEVEEEDVAEERDNGESEAHEDEEDELPKSFYKAPQAIPKEESRTGANKYVYFVCNEPGRPWVKLPPVIPAQIVIARKIKKFFTGRLDAPIISYPPFPGNESNYLRAQIARISAGTHVSPLGFYQFGEEEGEEEEEAEGGRNSFEENPDFEGIQVIDLVESLSNWVHHVQHILSQGRCNWFNSIQKNEEEEEEEDEEKDDSDYIEQEVGLPLLTPISEDLEIQNIPPWTTRLSSNLIPQYAIAVLQSNLWPGAYAFSNGKKFENFYIGWGHKYSPDNYTPPVPPPVYQEYPSGPEITEMDDPSVEEEQAFRAAQEAVLLAAENEESEEDEDEEDDYD
B3: Protein patched homolog 1 (Homo sapiens), Q13635 (parent)
chain: MASAGNAAEPQDRGGGGSGCIGAPGRPAGGGRRRRTGGLRRAAAPDRDYLHRPSYCDAAFALEQISKGKATGRKAPLWLRAKFQRLLFKLGCYIQKNCGKFLVVGLLIFGAFAVGLKAANLETNVEELWVEVGGRVSRELNYTRQKIGEEAMFNPQLMIQTPKEEGANVLTTEALLQHLDSALQASRVHVYMYNRQWKLEHLCYKSGELITETGYMDQIIEYLYPCLIITPLDCFWEGAKLQSGTAYLLGKPPLRWTNFDPLEFLEELKKINYQVDSWEEMLNKAEVGHGYMDRPCLNPADPDCPATAPNKNSTKPLDMALVLNGGCHGLSRKYMHWQEELIVGGTVKNSTGKLVSAHALQTMFQLMTPKQMYEHFKGYEYVSHINWNEDKAAAILEAWQRTYVEVVHQSVAQNSTQKVLSFTTTTLDDILKSFSDVSVIRVASGYLLMLAYACLTMLRWDCSKSQGAVGLAGVLLVALSVAAGLGLCSLIGISFNAATTQVLPFLALGVGVDDVFLLAHAFSETGQNKRIPFEDRTGECLKRTGASVALTSISNVTAFFMAALIPIPALRAFSLQAAVVVVFNFAMVLLIFPAILSMDLYRREDRRLDIFCCFTSPCVSRVIQVEPQAYTDTHDNTRYSPPPPYSSHSFAHETQITMQSTVQLRTEYDPHTHVYYTTAEPRSEISVQPVTVTQDTLSCQSPESTSSTRDLLSQFSDSSLHCLEPPCTKWTLSSFAEKHYAPFLLKPKAKVVVIFLFLGLLGVSLYGTTRVRDGLDLTDIVPRETREYDFIAAQFKYFSFYNMYIVTQKADYPNIQHLLYDLHRSFSNVKYVMLEENKQLPKMWLHYFRDWLQGLQDAFDSDWETGKIMPNNYKNGSDDGVLAYKLLVQTGSRDKPIDISQLTKQRLVDADGIINPSAFYIYLTAWVSNDPVAYAASQANIRPHRPEWVHDKADYMPETRLRIPAAEPIEYAQFPFYLNGLRDTSDFVEAIEKVRTICSNYTSLGLSSYPNGYPFLFWEQYIGLRHWLLLFISVVLACTFLVCAVFLLNPWTAGIIVMVLALMTVELFGMMGLIGIKLSAVPVVILIASVGIGVEFTVHVALAFLTAIGDKNRRAVLALEHMFAPVLDGAVSTLLGVLMLAGSEFDFIVRYFFAVLAILTILGVLNGLVLLPVLLSFFGPYPEVSPANGLNRLPTPSPEPPPSVVRFAMPPGHTHSGSDSSDSEYSSQTTVSGLSEELRHYEAQQGAGGPAHQVIVEATENPVFAHSTVVHPESRHHPPSNPRQQPHLDSGSLPPGRQGQQPRRDPPREGLWPPPYRPRRDAFEISTEGHSGPSNRARWGPRGARSHNPRNPASTAMGSSVPGYCQPITTVTASASVTVAVHPPPVPGPGRNPRGGLCPGYPETDHGLFEDPHVPFHVRCERRDSKVEVIELQDVECEERPRGSSSN
B4: Tyrosine-protein phosphatase non-receptor type 22 (Homo sapiens), Q9Y2R2 (parent)
chain: MDQREILQKFLDEAQSKKITKEEFANEFLKLKRQSTKYKADKTYPTTVAEKPKNIKKNRYKDILPYDYSRVELSLITSDEDSSYINANFIKGVYGPKAYIATQGPLSTTLLDFWRMIWEYSVLIIVMACMEYEMGKKKCERYWAEPGEMQLEFGPFSVSCEAEKRKSDYIIRTLKVKFNSETRTIYQFHYKNWPDHDVPSSIDPILELIWDVRCYQEDDSVPICIHCSAGCGRTGVICAIDYTWMLLKDGIIPENFSVFSLIREMRTQRPSLVQTQEQYELVYNAVLELFKRQMDVIRDKHSGTESQAKHCIPEKNHTLQADSYSPNLPKSTTKAAKMMNQQRTKMEIKESSSFDFRTSEISAKEELVLHPAKSSTSFDFLELNYSFDKNADTTMKWQTKAFPIVGEPLQKHQSLDLGSLLFEGCSNSKPVNAAGRYFNSKVPITRTKSTPFELIQQRETKEVDSKENFSYLESQPHDSCFVEMQAQKVMHVSSAELNYSLPYDSKHQIRNASNVKHHDSSALGVYSYIPLVENPYFSSWPPSGTSSKMSLDLPEKQDGTVFPSSLLPTSSTSLFSYYNSHDSLSLNSPTNISSLLNQESAVLATAPRIDDEIPPPLPVRTPESFIVVEEAGEFSPNVPKSLSSAVKVKIGTSLEWGGTSEPKKFDDSVILRPSKSVKLRSPKSELHQDRSSPPPPLPERTLESFFLADEDCMQAQSIETYSTSYPDTMENSTSSKQTLKTPGKSFTRSKSLKILRNMKKSICNSCPPNKPAESVQSNNSSSFLNFGFANRFSKPKGPRNPPPTWNI
B5: ATP-binding cassette sub-family C member 6 (Homo sapiens), O95255 (parent)
chain: MAAPAEPCAGQGVWNQTEPEPAATSLLSLCFLRTAGVWVPPMYLWVLGPIYLLFIHHHGRGYLRMSPLFKAKMVLGFALIVLCTSSVAVALWKIQQGTPEAPEFLIHPTVWLTTMSFAVFLIHTERKKGVQSSGVLFGYWLLCFVLPATNAAQQASGAGFQSDPVRHLSTYLCLSLVVAQFVLSCLADQPPFFPEDPQQSNPCPETGAAFPSKATFWWVSGLVWRGYRRPLRPKDLWSLGRENSSEELVSRLEKEWMRNRSAARRHNKAIAFKRKGGSGMKAPETEPFLRQEGSQWRPLLKAIWQVFHSTFLLGTLSLIISDVFRFTVPKLLSLFLEFIGDPKPPAWKGYLLAVLMFLSACLQTLFEQQNMYRLKVLQMRLRSAITGLVYRKVLALSSGSRKASAVGDVVNLVSVDVQRLTESVLYLNGLWLPLVWIVVCFVYLWQLLGPSALTAIAVFLSLLPLNFFISKKRNHHQEEQMRQKDSRARLTSSILRNSKTIKFHGWEGAFLDRVLGIRGQELGALRTSGLLFSVSLVSFQVSTFLVALVVFAVHTLVAENAMNAEKAFVTLTVLNILNKAQAFLPFSIHSLVQARVSFDRLVTFLCLEEVDPGVVDSSSSGSAAGKDCITIHSATFAWSQESPPCLHRINLTVPQGCLLAVVGPVGAGKSSLLSALLGELSKVEGFVSIEGAVAYVPQEAWVQNTSVVENVCFGQELDPPWLERVLEACALQPDVDSFPEGIHTSIGEQGMNLSGGQKQRLSLARAVYRKAAVYLLDDPLAALDAHVGQHVFNQVIGPGGLLQGTTRILVTHALHILPQADWIIVLANGAIAEMGSYQELLQRKGALMCLLDQARQPGDRGEGETEPGTSTKDPRGTSAGRRPELRRERSIKSVPEKDRTTSEAQTEVPLDDPDRAGWPAGKDSIQYGRVKATVHLAYLRAVGTPLCLYALFLFLCQQVASFCRGYWLSLWADDPAVGGQQTQAALRGGIFGLLGCLQAIGLFASMAAVLLGGARASRLLFQRLLWDVVRSPISFFERTPIGHLLNRFSKETDTVDVDIPDKLRSLLMYAFGLLEVSLVVAVATPLATVAILPLFLLYAGFQSLYVVSSCQLRRLESASYSSVCSHMAETFQGSTVVRAFRTQAPFVAQNNARVDESQRISFPRLVADRWLAANVELLGNGLVFAAATCAVLSKAHLSAGLVGFSVSAALQVTQTLQWVVRNWTDLENSIVSVERMQDYAWTPKEAPWRLPTCAAQPPWPQGGQIEFRDFGLRYRPELPLAVQGVSFKIHAGEKVGIVGRTGAGKSSLASGLLRLQEAAEGGIWIDGVPIAHVGLHTLRSRISIIPQDPILFPGSLRMNLDLLQEHSDEAIWAALETVQLKALVASLPGQLQYKCADRGEDLSVGQKQLLCLARALLRKTQILILDEATAAVDPGTELQMQAMLGSWFAQCTVLLIAHRLRSVMDCARVLVMDKGQVAESGSPAQLLAQKGLFYRLAQESGLV

Variants of: B1
Conditions: with nedd4_human NEDD4, P46934
Target sequence in this assay (P46934 whole entry): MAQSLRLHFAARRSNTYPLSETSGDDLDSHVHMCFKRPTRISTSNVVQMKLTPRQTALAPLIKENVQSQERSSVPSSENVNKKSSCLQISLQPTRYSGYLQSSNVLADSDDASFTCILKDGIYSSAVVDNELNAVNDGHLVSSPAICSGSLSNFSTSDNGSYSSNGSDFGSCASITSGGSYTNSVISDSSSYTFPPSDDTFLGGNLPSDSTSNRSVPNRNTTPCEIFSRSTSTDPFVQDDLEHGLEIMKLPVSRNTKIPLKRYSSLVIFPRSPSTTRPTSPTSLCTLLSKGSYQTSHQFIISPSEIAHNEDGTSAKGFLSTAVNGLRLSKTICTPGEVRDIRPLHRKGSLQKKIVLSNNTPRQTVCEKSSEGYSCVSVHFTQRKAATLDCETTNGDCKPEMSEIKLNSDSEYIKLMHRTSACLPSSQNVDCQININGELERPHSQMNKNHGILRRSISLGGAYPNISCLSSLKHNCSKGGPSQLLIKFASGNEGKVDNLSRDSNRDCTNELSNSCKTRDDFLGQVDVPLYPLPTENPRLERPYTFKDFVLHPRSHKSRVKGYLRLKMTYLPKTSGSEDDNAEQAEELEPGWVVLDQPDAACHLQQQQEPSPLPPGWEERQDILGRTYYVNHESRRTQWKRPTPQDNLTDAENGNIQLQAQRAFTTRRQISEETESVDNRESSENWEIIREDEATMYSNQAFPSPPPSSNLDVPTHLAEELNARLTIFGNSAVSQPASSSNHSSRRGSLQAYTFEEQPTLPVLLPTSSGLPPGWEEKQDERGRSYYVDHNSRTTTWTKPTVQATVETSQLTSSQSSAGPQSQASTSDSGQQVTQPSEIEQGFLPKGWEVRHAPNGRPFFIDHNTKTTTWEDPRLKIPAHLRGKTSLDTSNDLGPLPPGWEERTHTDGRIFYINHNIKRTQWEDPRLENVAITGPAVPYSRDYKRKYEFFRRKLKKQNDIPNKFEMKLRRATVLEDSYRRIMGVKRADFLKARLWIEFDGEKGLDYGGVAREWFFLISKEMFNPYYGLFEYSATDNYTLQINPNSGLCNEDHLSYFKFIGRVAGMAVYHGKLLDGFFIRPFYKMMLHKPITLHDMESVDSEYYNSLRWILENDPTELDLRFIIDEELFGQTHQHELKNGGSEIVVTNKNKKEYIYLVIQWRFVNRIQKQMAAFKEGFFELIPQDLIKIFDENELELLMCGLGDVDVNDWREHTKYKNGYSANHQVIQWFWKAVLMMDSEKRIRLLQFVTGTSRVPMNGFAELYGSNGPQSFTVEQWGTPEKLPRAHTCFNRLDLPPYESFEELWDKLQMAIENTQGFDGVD

| Variant | effect of a mutation on the interaction |
| --- | --- |
| Y620H | decreasing interaction strength |

Variants of: B1
Conditions: with wwtr1_human WWTR1, Q9GZV5
Sequence of wwtr1_human WWTR1, Q9GZV5 (Q9GZV5 whole entry): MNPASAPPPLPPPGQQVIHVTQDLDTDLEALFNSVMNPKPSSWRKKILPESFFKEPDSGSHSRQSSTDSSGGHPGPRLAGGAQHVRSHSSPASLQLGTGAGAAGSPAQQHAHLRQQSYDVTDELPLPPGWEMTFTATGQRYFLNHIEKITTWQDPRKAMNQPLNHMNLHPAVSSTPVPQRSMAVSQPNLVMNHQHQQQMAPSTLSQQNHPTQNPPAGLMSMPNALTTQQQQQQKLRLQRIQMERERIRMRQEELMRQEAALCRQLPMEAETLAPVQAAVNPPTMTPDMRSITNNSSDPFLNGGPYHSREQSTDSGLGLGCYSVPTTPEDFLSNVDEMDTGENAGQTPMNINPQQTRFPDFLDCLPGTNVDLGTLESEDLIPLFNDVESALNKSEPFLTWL

| Variant | effect of a mutation on the interaction |
| --- | --- |
| Y620H | decreasing interaction strength |

Variants of: B1
Conditions: with nedd4_human NEDD4, P46934
Remark: another data set of the same source
Target sequence in this assay (P46934 whole entry): as the sequence (P46934 whole entry) above

| Variant | effect of a mutation on the interaction |
| --- | --- |
| P616R | decreasing interaction strength |

Variants of: B2
Conditions: with nedd4_human NEDD4, P46934
Target sequence in this assay (P46934 whole entry): as above

| Variant | effect of a mutation on the interaction |
| --- | --- |
| P664S | decreasing interaction strength |

Variants of: B3
Conditions: with ppia_human PPIA

| Variant | effect of a mutation on the interaction |
| --- | --- |
| P1180Q | decreasing interaction strength |

Variants of: B4
Conditions: with itsn1_human ITSN1, Q15811
Sequence of itsn1_human ITSN1, Q15811 (Q15811 whole entry): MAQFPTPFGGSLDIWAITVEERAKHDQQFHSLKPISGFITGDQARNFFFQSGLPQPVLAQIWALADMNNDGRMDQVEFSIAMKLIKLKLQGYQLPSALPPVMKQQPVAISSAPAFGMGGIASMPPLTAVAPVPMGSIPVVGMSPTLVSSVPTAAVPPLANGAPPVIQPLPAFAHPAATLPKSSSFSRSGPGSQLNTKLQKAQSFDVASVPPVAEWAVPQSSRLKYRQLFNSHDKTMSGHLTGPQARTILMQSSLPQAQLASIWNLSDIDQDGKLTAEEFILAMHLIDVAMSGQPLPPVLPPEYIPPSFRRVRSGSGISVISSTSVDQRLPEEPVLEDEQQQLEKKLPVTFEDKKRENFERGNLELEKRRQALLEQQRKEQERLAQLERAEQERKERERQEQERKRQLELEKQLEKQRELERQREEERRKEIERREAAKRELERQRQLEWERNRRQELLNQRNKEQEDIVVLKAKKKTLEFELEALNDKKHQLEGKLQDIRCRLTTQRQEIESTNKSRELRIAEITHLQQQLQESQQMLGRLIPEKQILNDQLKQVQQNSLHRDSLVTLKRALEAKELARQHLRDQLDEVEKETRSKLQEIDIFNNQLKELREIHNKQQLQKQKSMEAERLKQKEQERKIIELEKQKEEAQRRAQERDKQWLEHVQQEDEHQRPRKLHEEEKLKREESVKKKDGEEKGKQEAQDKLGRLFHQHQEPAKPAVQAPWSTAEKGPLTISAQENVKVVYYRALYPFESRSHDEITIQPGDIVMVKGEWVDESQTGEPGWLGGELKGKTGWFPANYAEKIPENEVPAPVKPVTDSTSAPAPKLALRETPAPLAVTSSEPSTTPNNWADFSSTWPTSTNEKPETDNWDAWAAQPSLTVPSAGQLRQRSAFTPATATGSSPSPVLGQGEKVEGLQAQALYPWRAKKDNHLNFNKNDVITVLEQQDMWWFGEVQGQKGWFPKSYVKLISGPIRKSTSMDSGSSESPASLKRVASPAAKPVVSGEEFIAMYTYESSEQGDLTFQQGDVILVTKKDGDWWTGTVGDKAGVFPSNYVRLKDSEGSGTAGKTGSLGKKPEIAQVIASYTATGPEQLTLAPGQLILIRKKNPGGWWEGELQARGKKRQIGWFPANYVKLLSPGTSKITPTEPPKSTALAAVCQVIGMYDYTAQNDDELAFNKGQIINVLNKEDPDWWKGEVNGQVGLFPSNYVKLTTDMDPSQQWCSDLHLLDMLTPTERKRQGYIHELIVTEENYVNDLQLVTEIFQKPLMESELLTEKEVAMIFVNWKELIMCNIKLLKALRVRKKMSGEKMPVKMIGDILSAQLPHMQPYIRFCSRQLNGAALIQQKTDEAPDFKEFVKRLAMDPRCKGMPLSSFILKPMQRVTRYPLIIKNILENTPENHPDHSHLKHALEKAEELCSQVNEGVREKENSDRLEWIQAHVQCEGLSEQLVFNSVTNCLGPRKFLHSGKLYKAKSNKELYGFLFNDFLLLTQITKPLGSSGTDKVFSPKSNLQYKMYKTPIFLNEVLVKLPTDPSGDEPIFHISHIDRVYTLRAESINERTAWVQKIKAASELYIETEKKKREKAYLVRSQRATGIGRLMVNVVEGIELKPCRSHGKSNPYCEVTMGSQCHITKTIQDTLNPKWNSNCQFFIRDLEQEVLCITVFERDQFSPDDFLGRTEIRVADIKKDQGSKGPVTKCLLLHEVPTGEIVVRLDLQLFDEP

| Variant | effect of a mutation on the interaction |
| --- | --- |
| R620W | decreasing interaction strength |

Variants of: B5
Conditions: with mlp3b_human MAP1LC3B

| Variant | effect of a mutation on the interaction |
| --- | --- |
| L1226I | decreasing interaction strength |

Variants of: B5
Conditions: with mlp3a_human MAP1LC3A

| Variant | effect of a mutation on the interaction |
| --- | --- |
| L1226I | decreasing interaction strength |
